The results in this text go back to paper PMC12265162, “A single residue change only differing by an atomic group can drive imprinting to influenza” (Research Square, 2025).

Holding throughout (settings): both partners purified
For test [1], the target named is A/Brisbane/59/2007 H1 hemagglutinin, recombinant (Influenza A virus A/Brisbane/59/2007 …, UniProt D5F1Q8, strain, biotin on the AviTag). The experiment in a line: ELISA. In general terms: ELISA stands for enzyme-linked immunosorbent assay.
In test [2] the target is A/USSR/90/1977 H1 hemagglutinin, recombinant (Influenza A virus A/USSR/90/1977 (H1N1), UniProt P03453, strain, biotin on the AviTag). Briefly: ELISA.
In test [3] the target is A/New Caledonia/20/1999 (NC99) H1 hemagglutinin, recombinant (Influenza A virus A/New …, UniProt Q6WG00, strain, biotin on the AviTag). The experiment in a line: ELISA.
Test [4] addresses T1, H1N1 A/Solomon Islands/3/2006 HA protein (Influenza A virus A/Solomon …, strain).
T1 construct: source: purified
Briefly: cryo-EM structure.

B1: NI06063_d30_103 mAb (human IgG1) (antibody, V domains shown)
VH: QVHLVESGGGVVQPGRSLRLSCAASGFTFSNYGMHWVRQAPGKGLEWVAFISYDGSNEYYADSVKGRFTISRDYSKYTLYLQMNSLRAEDTAVYYCAKDGQWLVRGAFDFWGQGTMVTVSS
VL: QSALTQPASVSGSPGQSITISCSGTGSDVGSSHLVSWYQHHPGKAPKLMIFEVSKRPLGVSNRFSGSKSGNTASLTISGLQTEDEADYYCCSYAGGRGVFGGGTKLTVL
notes: IgG1; also called mAb d30_103
Take B1: the binding result in test [1], in test [2] and in test [3] was “no binding” each time.

B2: NI04359_d30_245 Fab (Fab, V domains shown)
VH: EVQLVESGGGLFKPGGSLRLSCAASGFTFRNAWMSWVRQAPGKGLEWVGRIKSKADGGTTDYAASVKGRFTISRDDSKNTLYLHMNSLKTEDTAVYYCTTPPEIAVVAAAMRDYYYGLDVWGPGTTVTVSS
VL: SYELTQPVSVSVALGQTARITCGGNNIGSKSLHWYQQKPGQAPVLVIYRDNNRPSGIPERFSGSNSGNTATLTISRAQAGDEADYYCQVWDSSTYVVFGGGTRLTVL
notes: also called mAb NI04359_d30_245; source: Expi293F, co-transfected, Fab purified from supernatant (Ni-NTA agarose)
For B2, the binding result in test [4] is on record as “binds”.

B3: NI01056_d30_604 Fab (Fab, V domains shown)
VH: QVQLQESGPGLVKPSETLSLTCTVSGGSISNYYWTWIRQPPGKGLEWIGYMYDSGNTKYNSSLRSRLTMSLDTSKNQFSLKMRSVTAADTAVYYCARGGGVRNLLGLRFVSDYMDVWGKGTTVTVSS
VL: DIQMTQSPSTLSASVGDRVTITCRASQSISSWLAWYQQKPGKAPHLLIYQASSLETGVPSRFSGSGSGTEFTLTISSLQPDDFATYYCQQYNTYSSTFGQGTQLQIK
notes: also called mAb NI01056_d30_604; source: Expi293F, co-transfected, Fab purified from supernatant (Ni-NTA agarose)
Regarding B3, the binding result in test [4] is on record as “binds”.
